# Laboratory results published in patent US20260209386A1 (MYTHIC THERAPEUTICS, published 2026).
# T1: Human PTK7 Protein, His Tag (Acro Biosystems) (human, UniProt Q13308 31-704)
# T1 construct: Bought His-tagged protein; also called CCK4; not shown: His tag
# T1 sequence: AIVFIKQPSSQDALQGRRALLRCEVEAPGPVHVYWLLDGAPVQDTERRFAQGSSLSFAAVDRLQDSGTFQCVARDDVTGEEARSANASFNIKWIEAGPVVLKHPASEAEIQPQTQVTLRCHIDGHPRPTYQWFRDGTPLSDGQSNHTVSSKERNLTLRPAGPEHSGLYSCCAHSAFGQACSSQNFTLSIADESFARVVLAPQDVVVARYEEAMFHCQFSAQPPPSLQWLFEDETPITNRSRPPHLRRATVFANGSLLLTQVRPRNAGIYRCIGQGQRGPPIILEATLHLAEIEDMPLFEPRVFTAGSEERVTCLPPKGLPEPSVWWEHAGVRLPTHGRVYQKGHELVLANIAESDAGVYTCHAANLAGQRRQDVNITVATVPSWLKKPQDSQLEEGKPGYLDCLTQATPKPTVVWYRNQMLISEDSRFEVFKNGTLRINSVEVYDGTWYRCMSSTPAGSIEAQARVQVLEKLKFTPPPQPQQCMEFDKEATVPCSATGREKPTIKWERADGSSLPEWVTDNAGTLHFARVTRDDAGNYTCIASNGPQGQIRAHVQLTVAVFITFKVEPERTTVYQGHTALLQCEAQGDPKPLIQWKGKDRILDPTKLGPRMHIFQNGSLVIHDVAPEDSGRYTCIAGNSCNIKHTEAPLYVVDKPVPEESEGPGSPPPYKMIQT
# T2: Human PTK7 Protein, His Tag, Acro Biosystems (human, UniProt Q13308 31-704)
# T2 construct: Bought recombinant protein; also called CCK4; not shown: His tag
# T2 sequence: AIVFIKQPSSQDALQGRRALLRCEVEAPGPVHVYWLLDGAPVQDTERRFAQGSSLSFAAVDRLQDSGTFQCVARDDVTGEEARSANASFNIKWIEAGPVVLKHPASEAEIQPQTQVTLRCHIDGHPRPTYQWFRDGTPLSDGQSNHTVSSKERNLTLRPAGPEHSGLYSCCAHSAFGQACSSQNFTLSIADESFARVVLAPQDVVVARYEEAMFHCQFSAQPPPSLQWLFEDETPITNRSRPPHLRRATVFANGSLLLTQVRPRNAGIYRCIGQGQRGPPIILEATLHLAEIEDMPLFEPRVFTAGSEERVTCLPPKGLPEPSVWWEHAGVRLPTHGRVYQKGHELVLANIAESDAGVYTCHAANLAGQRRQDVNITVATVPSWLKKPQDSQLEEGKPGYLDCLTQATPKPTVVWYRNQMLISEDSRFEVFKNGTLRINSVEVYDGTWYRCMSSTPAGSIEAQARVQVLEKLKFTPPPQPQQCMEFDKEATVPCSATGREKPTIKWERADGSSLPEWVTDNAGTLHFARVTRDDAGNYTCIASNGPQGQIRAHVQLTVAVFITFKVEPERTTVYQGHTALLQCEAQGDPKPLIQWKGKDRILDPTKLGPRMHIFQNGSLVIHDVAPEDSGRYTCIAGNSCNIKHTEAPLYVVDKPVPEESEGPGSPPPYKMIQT
# Target: T1, Human PTK7 Protein, His Tag (Acro …)
# Assay: BLI (Octet), antibody on anti-human Fc sensor, 50 nM PTK7; grade 2 = substantially similar binding relative to parent
row,binding result,Binder
1,binds,"MYT11098 (antibody, V domains shown, MYT9361 LC variant) VH: EVQLVESGGGLVQPGGSLRLSCTASGLSLSSYWMSWVRQAPGKGLEWVGVISAGGNTYYANWAKGRFTISRDTSKNTVYLQMNSLRAEDTAVYFCARGDDGYTNAAYVSNLWGQGTLVTVSS VL: EIVMTQSPSTLSASVGDRVIITCQASQSISSWLSWYQQKPGKAPKLLIYKASTLASGVPSRFSGSGSGAEFTLTISSLQPDDFATYYCQSYFDSTTHAFGQGTKLTVL"
2,binds,"MYT11099 (antibody, V domains shown, MYT9361 LC variant) VH: EVQLVESGGGLVQPGGSLRLSCTASGLSLSSYWMSWVRQAPGKGLEWVGVISAGGNTYYANWAKGRFTISRDTSKNTVYLQMNSLRAEDTAVYFCARGDDGYTNAAYVSNLWGQGTLVTVSS VL: EIVMTQSPSTLSASVGDRVIITCQASQSISSWLSWYQQKPGKAPKLLIYKASTLASGVPSRFSGSGSGAEFTLTISSLQPDDFATYYCQSYFDSTTIHFGQGTKLTVL"

# Target: T2, Human PTK7 Protein, His Tag, Acro …
# Assay: BLI, anti-human Fc capture, 50 nM PTK7; 2 = substantially similar binding relative to parent
row,binding result,Binder
1,binds,"MYT11102 (antibody, V domains shown, MYT9412 HC variant) VH: EVQLVESGGGLVQPGGSLRLSCTASHFSLSTYAMSWVRQAPGKGLEWVGMIYINDNTYYASWAKGRFTISRDTSKNTVYLQMNSLRAEDTAVYFCARDIGISYYIGVSLWGQGTLVTVSS VL: EIVMTQSPSTLSASVGDRVIITCQASQSIGTRLSWYQQKPGKAPKLLIYGASKLATGVPSRFSGSGSGAEFTLTISSLQPDDFATYYCLGEYSYTTTDGIAFGQGTKLTVL"
2,binds,"MYT11110 (antibody, V domains shown, MYT9412 HC variant) VH: EVQLVESGGGLVQPGGSLRLSCTASGFSLSTYAHSWVRQAPGKGLEWVGMIYINDNTYYASWAKGRFTISRDTSKNTVYLQMNSLRAEDTAVYFCARDIGISYYIGVSLWGQGTLVTVSS VL: EIVMTQSPSTLSASVGDRVIITCQASQSIGTRLSWYQQKPGKAPKLLIYGASKLATGVPSRFSGSGSGAEFTLTISSLQPDDFATYYCLGEYSYTTTDGIAFGQGTKLTVL"
3,binds,"MYT11122 (antibody, V domains shown, MYT9412 HC variant) VH: EVQLVESGGGLVQPGGSLRLSCTASGFSLSTYAMSWVRQAPGKGLEWVGMIYINDNTYYHSWAKGRFTISRDTSKNTVYLQMNSLRAEDTAVYFCARDIGISYYIGVSLWGQGTLVTVSS VL: EIVMTQSPSTLSASVGDRVIITCQASQSIGTRLSWYQQKPGKAPKLLIYGASKLATGVPSRFSGSGSGAEFTLTISSLQPDDFATYYCLGEYSYTTTDGIAFGQGTKLTVL"
4,binds,"MYT11121 (antibody, V domains shown, MYT9412 HC variant) VH: EVQLVESGGGLVQPGGSLRLSCTASGFSLSTYAMSWVRQAPGKGLEWVGMIYINDNTYHASWAKGRFTISRDTSKNTVYLQMNSLRAEDTAVYFCARDIGISYYIGVSLWGQGTLVTVSS VL: EIVMTQSPSTLSASVGDRVIITCQASQSIGTRLSWYQQKPGKAPKLLIYGASKLATGVPSRFSGSGSGAEFTLTISSLQPDDFATYYCLGEYSYTTTDGIAFGQGTKLTVL"
5,binds,"MYT11113 (antibody, V domains shown, MYT9412 HC variant) VH: EVQLVESGGGLVQPGGSLRLSCTASGFSLSTYAMSWVRQAPGKGLEWVGMHYINDNTYYASWAKGRFTISRDTSKNTVYLQMNSLRAEDTAVYFCARDIGISYYIGVSLWGQGTLVTVSS VL: EIVMTQSPSTLSASVGDRVIITCQASQSIGTRLSWYQQKPGKAPKLLIYGASKLATGVPSRFSGSGSGAEFTLTISSLQPDDFATYYCLGEYSYTTTDGIAFGQGTKLTVL"
6,binds,"MYT11127 (antibody, V domains shown, MYT9412 HC variant) VH: EVQLVESGGGLVQPGGSLRLSCTASGFSLSTYAMSWVRQAPGKGLEWVGMIYINDNTYYASWAKHRFTISRDTSKNTVYLQMNSLRAEDTAVYFCARDIGISYYIGVSLWGQGTLVTVSS VL: EIVMTQSPSTLSASVGDRVIITCQASQSIGTRLSWYQQKPGKAPKLLIYGASKLATGVPSRFSGSGSGAEFTLTISSLQPDDFATYYCLGEYSYTTTDGIAFGQGTKLTVL"
7,binds,"MYT11109 (antibody, V domains shown, MYT9412 HC variant) VH: EVQLVESGGGLVQPGGSLRLSCTASGFSLSTYHMSWVRQAPGKGLEWVGMIYINDNTYYASWAKGRFTISRDTSKNTVYLQMNSLRAEDTAVYFCARDIGISYYIGVSLWGQGTLVTVSS VL: EIVMTQSPSTLSASVGDRVIITCQASQSIGTRLSWYQQKPGKAPKLLIYGASKLATGVPSRFSGSGSGAEFTLTISSLQPDDFATYYCLGEYSYTTTDGIAFGQGTKLTVL"
8,binds,"MYT11125 (antibody, V domains shown, MYT9412 HC variant) VH: EVQLVESGGGLVQPGGSLRLSCTASGFSLSTYAMSWVRQAPGKGLEWVGMIYINDNTYYASWHKGRFTISRDTSKNTVYLQMNSLRAEDTAVYFCARDIGISYYIGVSLWGQGTLVTVSS VL: EIVMTQSPSTLSASVGDRVIITCQASQSIGTRLSWYQQKPGKAPKLLIYGASKLATGVPSRFSGSGSGAEFTLTISSLQPDDFATYYCLGEYSYTTTDGIAFGQGTKLTVL"
9,binds,"MYT11119 (antibody, V domains shown, MYT9412 HC variant) VH: EVQLVESGGGLVQPGGSLRLSCTASGFSLSTYAMSWVRQAPGKGLEWVGMIYINDNHYYASWAKGRFTISRDTSKNTVYLQMNSLRAEDTAVYFCARDIGISYYIGVSLWGQGTLVTVSS VL: EIVMTQSPSTLSASVGDRVIITCQASQSIGTRLSWYQQKPGKAPKLLIYGASKLATGVPSRFSGSGSGAEFTLTISSLQPDDFATYYCLGEYSYTTTDGIAFGQGTKLTVL"
10,binds,"MYT11124 (antibody, V domains shown, MYT9412 HC variant) VH: EVQLVESGGGLVQPGGSLRLSCTASGFSLSTYAMSWVRQAPGKGLEWVGMIYINDNTYYASHAKGRFTISRDTSKNTVYLQMNSLRAEDTAVYFCARDIGISYYIGVSLWGQGTLVTVSS VL: EIVMTQSPSTLSASVGDRVIITCQASQSIGTRLSWYQQKPGKAPKLLIYGASKLATGVPSRFSGSGSGAEFTLTISSLQPDDFATYYCLGEYSYTTTDGIAFGQGTKLTVL"
11,binds,"MYT11129 (antibody, V domains shown, MYT9412 HC variant) VH: EVQLVESGGGLVQPGGSLRLSCTASGFSLSTYAMSWVRQAPGKGLEWVGMIYINDNTYYASWAKGRFTISRDTSKNTVYLQMNSLRAEDTAVYFCAHDIGISYYIGVSLWGQGTLVTVSS VL: EIVMTQSPSTLSASVGDRVIITCQASQSIGTRLSWYQQKPGKAPKLLIYGASKLATGVPSRFSGSGSGAEFTLTISSLQPDDFATYYCLGEYSYTTTDGIAFGQGTKLTVL"
12,binds,"MYT11126 (antibody, V domains shown, MYT9412 HC variant) VH: EVQLVESGGGLVQPGGSLRLSCTASGFSLSTYAMSWVRQAPGKGLEWVGMIYINDNTYYASWAHGRFTISRDTSKNTVYLQMNSLRAEDTAVYFCARDIGISYYIGVSLWGQGTLVTVSS VL: EIVMTQSPSTLSASVGDRVIITCQASQSIGTRLSWYQQKPGKAPKLLIYGASKLATGVPSRFSGSGSGAEFTLTISSLQPDDFATYYCLGEYSYTTTDGIAFGQGTKLTVL"
13,binds,"MYT11104 (antibody, V domains shown, MYT9412 HC variant) VH: EVQLVESGGGLVQPGGSLRLSCTASGFHLSTYAMSWVRQAPGKGLEWVGMIYINDNTYYASWAKGRFTISRDTSKNTVYLQMNSLRAEDTAVYFCARDIGISYYIGVSLWGQGTLVTVSS VL: EIVMTQSPSTLSASVGDRVIITCQASQSIGTRLSWYQQKPGKAPKLLIYGASKLATGVPSRFSGSGSGAEFTLTISSLQPDDFATYYCLGEYSYTTTDGIAFGQGTKLTVL"
14,binds,"MYT11118 (antibody, V domains shown, MYT9412 HC variant) VH: EVQLVESGGGLVQPGGSLRLSCTASGFSLSTYAMSWVRQAPGKGLEWVGMIYINDHTYYASWAKGRFTISRDTSKNTVYLQMNSLRAEDTAVYFCARDIGISYYIGVSLWGQGTLVTVSS VL: EIVMTQSPSTLSASVGDRVIITCQASQSIGTRLSWYQQKPGKAPKLLIYGASKLATGVPSRFSGSGSGAEFTLTISSLQPDDFATYYCLGEYSYTTTDGIAFGQGTKLTVL"
15,binds,"MYT11123 (antibody, V domains shown, MYT9412 HC variant) VH: EVQLVESGGGLVQPGGSLRLSCTASGFSLSTYAMSWVRQAPGKGLEWVGMIYINDNTYYAHWAKGRFTISRDTSKNTVYLQMNSLRAEDTAVYFCARDIGISYYIGVSLWGQGTLVTVSS VL: EIVMTQSPSTLSASVGDRVIITCQASQSIGTRLSWYQQKPGKAPKLLIYGASKLATGVPSRFSGSGSGAEFTLTISSLQPDDFATYYCLGEYSYTTTDGIAFGQGTKLTVL"
16,binds,"MYT11116 (antibody, V domains shown, MYT9412 HC variant) VH: EVQLVESGGGLVQPGGSLRLSCTASGFSLSTYAMSWVRQAPGKGLEWVGMIYIHDNTYYASWAKGRFTISRDTSKNTVYLQMNSLRAEDTAVYFCARDIGISYYIGVSLWGQGTLVTVSS VL: EIVMTQSPSTLSASVGDRVIITCQASQSIGTRLSWYQQKPGKAPKLLIYGASKLATGVPSRFSGSGSGAEFTLTISSLQPDDFATYYCLGEYSYTTTDGIAFGQGTKLTVL"
17,binds,"MYT11135 (antibody, V domains shown, MYT9412 HC variant) VH: EVQLVESGGGLVQPGGSLRLSCTASGFSLSTYAMSWVRQAPGKGLEWVGMIYINDNTYYASWAKGRFTISRDTSKNTVYLQMNSLRAEDTAVYFCARDIGISHYIGVSLWGQGTLVTVSS VL: EIVMTQSPSTLSASVGDRVIITCQASQSIGTRLSWYQQKPGKAPKLLIYGASKLATGVPSRFSGSGSGAEFTLTISSLQPDDFATYYCLGEYSYTTTDGIAFGQGTKLTVL"
